We go through nine substances from paper PMC3812903 (Biochemistry, 2013).

One assay has as its target NarJ (Escherichia coli) (UniProt P0AF26). The settings on record: cited from earlier work.
In assay [1] the target is DmsAL15-41 (DmsA twin-arginine leader peptide, residues 15-41) (UniProt P18775). Description: ITC. As to conditions: pH 8.0; 30 °C (303.15 K); 100 mM NaCl; 25 mM Tris-HCl (pH 8.0).
For assay [2], the target named is DmsAL15-41 KK (DmsA leader peptide residues 15-41, twin arginines changed to lysines) R16K;R17K (UniProt P18775). Description: ITC. The settings on record: pH 8.0; 30 °C (303.15 K); 100 mM NaCl; 25 mM Tris-HCl (pH 8.0).
Assay [3] has as its target DmsAL17-41 (DmsA twin-arginine leader peptide, residues 17-41) (UniProt P18775). The assay is described as follows: ITC. As to conditions: pH 8.0; 30 °C (303.15 K); 100 mM NaCl; 25 mM Tris-HCl (pH 8.0).
In assay [4] the target is DmsAL21-41 (DmsA twin-arginine leader peptide, residues 21-41) (UniProt P18775). Description: ITC. As to conditions: pH 8.0; 30 °C (303.15 K); 100 mM NaCl; 25 mM Tris-HCl (pH 8.0).
In assay [5] the target is DmsD (Escherichia coli) (UniProt P69853). The settings on record: cited from earlier work.
For assay [6] the target is unchanged. As to conditions: cited from earlier work. This is another data set of the same source.
Assay [7] has as its target DmsD (His6T7::DmsD construct) (E. coli) (UniProt P69853). Description: ITC. Background: Isothermal titration calorimetry measures the heat released or taken up as one component is titrated into another.
Another assay has as its target TorD (Escherichia coli) (UniProt P36662). As to conditions: cited from earlier work.
Sequence of UniProt P36662 (P36662 whole entry): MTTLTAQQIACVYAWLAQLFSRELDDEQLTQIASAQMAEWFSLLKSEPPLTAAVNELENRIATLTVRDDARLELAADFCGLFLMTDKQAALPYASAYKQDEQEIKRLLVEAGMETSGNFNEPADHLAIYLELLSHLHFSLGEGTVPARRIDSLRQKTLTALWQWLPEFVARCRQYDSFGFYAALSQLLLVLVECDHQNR
A further assay deals with NarJ. As to conditions: cited from earlier work.

Read-outs that look alike come from different tables or passages of the source.

Sequence of UniProt P0AF26 (P0AF26 whole entry, the tested form may be a part): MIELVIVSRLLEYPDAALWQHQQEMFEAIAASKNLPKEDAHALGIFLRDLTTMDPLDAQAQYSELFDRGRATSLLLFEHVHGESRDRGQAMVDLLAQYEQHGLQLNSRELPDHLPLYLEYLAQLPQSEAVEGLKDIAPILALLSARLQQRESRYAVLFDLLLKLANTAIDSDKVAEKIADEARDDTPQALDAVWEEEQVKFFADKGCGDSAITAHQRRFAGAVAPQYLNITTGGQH

As a reminder, the Kd is the constant that tells how readily two partners part at equilibrium. Turning to “NarG N-terminal peptide 1-15 (from UniProt P09152)”, the Kd in the assay with NarJ (Escherichia coli) is 100 nM.

As for “DmsD (Tat proofreading chaperone / redox enzyme maturation protein)”, the ΔH (apparent, Tris) in assay [1] is -11.7 kcal/mol; in assay [2], -10 kcal/mol; in [3], -9.5 kcal/mol; in assay [4] it was -4.3 kcal/mol.

Take “DmsA leader peptide 1-43 (from UniProt P18775)”: the values for the Kd in the assay with DmsD (Escherichia coli) [5] and with DmsD (Escherichia coli) [6] were 60 nM and 200 nM, respectively.

Broadly, the stoichiometry N is a count of units in the complex or per binding partner. Take “DmsAL_(15–41 KK) (from UniProt P18775 15-41) (peptide)”: in assay [7], the Kd amounted to 2900 nM and the stoichiometry N was found to be 1.09.

In [7], “DmsAL_(15–41) (from UniProt P18775 15-41) (peptide)” gave a Ka of 600000 M⁻¹, a Kd of 1700 nM, a dH of -11.7 kcal/mol and a stoichiometry N of 1.04.

In assay [7], “DmsAL_(17–41) (from UniProt P18775 17-41) (peptide)” gave a Kd of 2100 nM, a dH of -9.5 kcal/mol and a stoichiometry N of 1.04.

On to “TorA leader peptide (from UniProt P33225)”, for which, in the assay with TorD (Escherichia coli), the Kd was 1800 nM.

In assay [7], “DmsAL_(21–41) (from UniProt P18775 21-41) (peptide)” came in with a Ka of 260000 M⁻¹, a Kd of 3900 nM, a dH of -4.3 kcal/mol and a stoichiometry N of 1.14.

As to “15 N-terminal residues of NarG: 15 amino-terminal residues of NarG, contain a remnant RR motif (MSKFLDRFRYFKQKG; UniProt P09152 1-15, looked up, fragment)”, the dissociation constant Kd at NarJ was about 100 nM.
